# Source: patent US20170037110A1 (IMMATICS BIOTECHNOLOGIES, published 2017)
# Molecular target: T1, HLA-A*02:01 (human)
# T1 construct: monomers captured on streptavidin plates; also called MHC class I
# Test: UV peptide exchange ELISA
# How it was run: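 Peptide-MHC complexes formed by UV-triggered exchange of a cleavable peptide for the test peptide, with stabilised complexes indicating binding. Exchange products diluted 100 fold onto streptavidin-coated wells, 1h at 37° C.; HRP anti-β2m (2 μg/ml), TMB, absorbance at 450 nm gives exchange yield.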
row,Binder,peptide exchange yield [%]
1,TLYGLSVLL,50 to 75
2,SMAPGLVIQAV,50 to 75
3,ILLDDTGLAYI,50 to 75
4,YVIDQGETDVYV,50 to 75
5,ILFRYPLTI,50 to 75
6,TMLLNIPLV,20 to 50
7,KLDDLTQDLTV,20 to 50
8,YVYPQRLNFV,50 to 75
9,FLQAHLHTA,≥ 75
10,YLAPELFVNV,20 to 50
11,ALYELEGTTV,50 to 75
12,IMEGTLTRV,20 to 50
13,GLFPEHLIDV,50 to 75
14,ALQNYIKEA,20 to 50
15,VLDDSIYLV,20 to 50
16,ILADIVISA,50 to 75
17,GLVNDLARV,20 to 50
18,KVLDVSDLESV,20 to 50
19,SLVNVVPKL,20 to 50
20,KMLGIPISNILMV,50 to 75
21,ALGYFVPYV,50 to 75
22,YLLQEIYGI,50 to 75
23,QLLDETSAITL,50 to 75
24,GLLDTQTSQVLTA,20 to 50
25,ALADGVTMQV,20 to 50

row,Binder,peptide exchange yield [%]
1,GLWEIENNPTV,50 to 75
2,KLYDRILRV,20 to 50
3,FLLDSSASV,20 to 50
4,SLLEQGLVEA,20 to 50
5,KLLPLAGLYL,≥ 75
6,ILFANPNIFV,50 to 75
7,HLYSSIEHLTT,50 to 75
8,YLLPESVDL,50 to 75
9,LLQNEQFEL,50 to 75
10,KLLEEDGTIITL,20 to 50
11,KVSNSGITRV,20 to 50
12,ALLPLSPYL,50 to 75
13,ALALGGIAVV,≥ 75
14,LLDAMNYHL,20 to 50
15,ALDEYTSEL,≥ 75
16,RLLDMGETDLML,50 to 75
17,ALLHPQGFEV,20 to 50
18,ALLENPKMEL,50 to 75
19,ALLELAEEL,50 to 75
20,AMFESSQNVLL,20 to 50
21,TLIEDEIATI,20 to 50
22,HLAEVSAEV,50 to 75
23,YLMDLINFL,50 to 75
24,VLFSGALLGL,20 to 50
25,KLGHTDILVGV,20 to 50

row,Binder,peptide exchange yield [%]
1,FLLQQHLISA,20 to 50
2,ALLELENSVTL,50 to 75
3,AMLNEPWAV,50 to 75
4,ALFMKQIYL,50 to 75
5,SLLEDKGLAEV,20 to 50
6,GLLRDEALAEV,50 to 75
7,SLQNHNHQL,50 to 75
8,LILDWVPYI,50 to 75
9,ALLPDLPAL,50 to 75
10,SLLQDLVSV,50 to 75
11,QLIPALAKV,50 to 75
12,YLFGERLLEC,50 to 75
13,GLLGGGGVLGV,50 to 75
14,FIDEAYVEV,20 to 50
15,SLLTEQDLWTV,20 to 50
16,LLAVIGGLVYL,50 to 75
17,ALFQATAEV,≥ 75
18,ALYDVFLEV,20 to 50
19,TLIEESAKV,20 to 50
20,RLADKSVLV,50 to 75
21,YLFEPLYHV,50 to 75
22,LLADVTHLL,20 to 50
23,YLDDLNEGVYI,20 to 50
